Legend:
[1] = target: PCSK9-FLAG (Pan troglodytes (Chimpanzee); Homo sapiens (Human)) (UniProt A8T644); test: AlphaScreen, His-tagged matrilin-2 at log [Matrilin] uM -2.340283 with PCSK9-FLAG; triplicate, SD 469
[2] = target: PCSK9-FLAG (Pan troglodytes (Chimpanzee); Homo sapiens (Human)) (UniProt A8T644); test: AlphaScreen, His-tagged matrilin-2 at log [Matrilin] uM -2.817405 with PCSK9-FLAG; triplicate, SD 412
[3] = target: PCSK9-FLAG (Pan troglodytes (Chimpanzee); Homo sapiens (Human)) (UniProt A8T644); test: AlphaScreen, His-tagged matrilin-2 at log [Matrilin] uM -3.294526 with PCSK9-FLAG; triplicate, SD 495
[4] = target: PCSK9-FLAG (Pan troglodytes (Chimpanzee); Homo sapiens (Human)) (UniProt A8T644); test: AlphaScreen, His-tagged matrilin-2 at log [Matrilin] uM -3.771647 with PCSK9-FLAG; triplicate, SD 220
[5] = target: PCSK9-FLAG (Pan troglodytes (Chimpanzee); Homo sapiens (Human)) (UniProt A8T644); test: AlphaScreen, His-tagged matrilin-2 at log [Matrilin] uM -1.386041 with PCSK9-FLAG; triplicate, SD 1634
[6] = target: PCSK9-FLAG (Pan troglodytes (Chimpanzee); Homo sapiens (Human)) (UniProt A8T644); test: AlphaScreen, His-tagged matrilin-2 at log [Matrilin] uM -1.863162 with PCSK9-FLAG; triplicate, SD 1131
[7] = target: PCSK9-FLAG (Pan troglodytes (Chimpanzee); Homo sapiens (Human)) (UniProt A8T644); test: AlphaScreen, His-tagged matrilin-2 at log [Matrilin] uM -0.4317983 with PCSK9-FLAG; triplicate, SD 2548
[8] = target: PCSK9-FLAG (Pan troglodytes (Chimpanzee); Homo sapiens (Human)) (UniProt A8T644); test: AlphaScreen, His-tagged matrilin-2 at log [Matrilin] uM -0.9089195 with PCSK9-FLAG; triplicate, SD 3028
[9] = target: PCSK9-FLAG (Pan troglodytes (Chimpanzee); Homo sapiens (Human)) (UniProt A8T644); test: AlphaScreen competition, matrilin-2 at 11 nM; inhibition of PCSK9-Flag binding to His-tagged LDL receptor (competitor LDLR), relative to maximum signal without matrilin-2
[10] = target: PCSK9-FLAG (Pan troglodytes (Chimpanzee); Homo sapiens (Human)) (UniProt A8T644); test: AlphaScreen competition, matrilin-2 at 34 nM; inhibition of PCSK9-Flag binding to His-tagged LDL receptor (competitor LDLR), relative to maximum signal without matrilin-2
[11] = target: PCSK9-FLAG (Pan troglodytes (Chimpanzee); Homo sapiens (Human)) (UniProt A8T644); test: AlphaScreen competition, matrilin-2 at 1.3 nM; inhibition of PCSK9-Flag binding to His-tagged LDL receptor (competitor LDLR), relative to maximum signal without matrilin-2
[12] = target: PCSK9-FLAG (Pan troglodytes (Chimpanzee); Homo sapiens (Human)) (UniProt A8T644); test: AlphaScreen competition, matrilin-2 at 3.8 nM; inhibition of PCSK9-Flag binding to His-tagged LDL receptor (competitor LDLR), relative to maximum signal without matrilin-2
[13] = target: PCSK9-FLAG (Pan troglodytes (Chimpanzee); Homo sapiens (Human)) (UniProt A8T644); test: AlphaScreen competition, matrilin-2 at 0.14 nM; inhibition of PCSK9-Flag binding to His-tagged LDL receptor (competitor LDLR), relative to maximum signal without matrilin-2
[14] = target: PCSK9-FLAG (Pan troglodytes (Chimpanzee); Homo sapiens (Human)) (UniProt A8T644); test: AlphaScreen competition, matrilin-2 at 0.42 nM; inhibition of PCSK9-Flag binding to His-tagged LDL receptor (competitor LDLR), relative to maximum signal without matrilin-2

Sequence of UniProt A8T644 (A8T644 31-152 limits assumed, chain 1 of 2): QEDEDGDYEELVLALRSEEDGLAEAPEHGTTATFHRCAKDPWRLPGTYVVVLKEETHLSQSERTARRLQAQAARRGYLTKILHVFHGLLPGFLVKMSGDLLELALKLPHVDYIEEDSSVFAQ
Sequence of UniProt A8T644 (A8T644 other isoform, or with tags, fused parts or gaps limits assumed, chain 2 of 2): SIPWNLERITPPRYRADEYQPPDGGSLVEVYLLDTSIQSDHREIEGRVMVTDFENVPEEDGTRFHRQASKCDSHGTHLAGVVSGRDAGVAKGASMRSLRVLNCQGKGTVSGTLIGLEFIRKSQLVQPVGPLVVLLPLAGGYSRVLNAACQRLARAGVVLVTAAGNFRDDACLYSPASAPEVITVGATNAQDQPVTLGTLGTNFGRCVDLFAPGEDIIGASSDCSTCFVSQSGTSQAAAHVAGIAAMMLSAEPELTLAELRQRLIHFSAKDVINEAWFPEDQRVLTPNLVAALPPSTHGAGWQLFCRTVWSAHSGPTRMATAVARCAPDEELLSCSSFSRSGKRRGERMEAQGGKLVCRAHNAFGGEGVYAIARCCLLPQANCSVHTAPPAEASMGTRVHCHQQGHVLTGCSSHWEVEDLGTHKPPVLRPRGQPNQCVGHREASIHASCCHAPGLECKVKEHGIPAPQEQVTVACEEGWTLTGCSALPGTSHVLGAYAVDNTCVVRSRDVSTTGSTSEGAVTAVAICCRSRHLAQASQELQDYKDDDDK

Alphascreen Signal (counts per second) [1]: 10100
Alphascreen Signal (counts per second) [2]: 12900
Alphascreen Signal (counts per second) [3]: 18800
Alphascreen Signal (counts per second) [4]: 20200
Alphascreen Signal (counts per second) [5]: 54000
Alphascreen Signal (counts per second) [6]: 14100
Alphascreen Signal (counts per second) [7]: 213000
Alphascreen Signal (counts per second) [8]: 222000
% inhibition [9]: 36%
% inhibition [10]: 50.7%
% inhibition [11]: 5.2%
% inhibition [12]: 17.1%
% inhibition [13]: 0.1%
% inhibition [14]: -0.4%
B1: His-tagged recombinant human matrilin-2 (mature, short isoform, Arg 24-Arg 937; R&D Systems Catalog Number 3044-MN) (protein, not shown: small tags and cut ends)
chain: RERSRGRSISRGRHARTHPQTALLESSCENKRADLVFIIDSSRSVNTHDYAKVKEFIVDILQFLDIGPDVTRVGLLQYGSTVKNEFSLKTFKRKSEVERAVKRMRHLSTGTMTGLAIQYALNIAFSEAEGARPLRENVPRVIMIVTDGRPQDSVAEVAAKARDTGILIFAIGVGQVDFNTLKSIGSEPHEDHVFLVANFSQIETLTSVFQKKLCTAHMCSTLEHNCAHFCINIPGSYVCRCKQGYILNSDQTTCRIQDLCAMEDHNCEQLCVNVPGSFVCQCYSGYALAEDGKRCVAVDYCASENHGCEHECVNADGSYLCQCHEGFALNPDKKTCTKIDYCASSNHGCQHECVNTDDSYSCHCLKGFTLNPDKKTCRRINYCALNKPGCEHECVNMEESYYCRCHRGYTLDPNGKTCSRVDHCAQQDHGCEQLCLNTEDSFVCQCSEGFLINEDLKTCSRVDYCLLSDHGCEYSCVNMDRSFACQCPEGHVLRSDGKTCAKLDSCALGDHGCEHSCVSSEDSFVCQCFEGYILREDGKTCRRKDVCQAIDHGCEHICVNSDDSYTCECLEGFRLAEDGKRCRRKDVCKSTHHGCEHICVNNGNSYICKCSEGFVLAEDGRRCKKCTEGPIDLVFVIDGSKSLGEENFEVVKQFVTGIIDSLTISPKAARVGLLQYSTQVHTEFTLRNFNSAKDMKKAVAHMKYMGKGSMTGLALKHMFERSFTQGEGARPLSTRVPRAAIVFTDGRAQDDVSEWASKAKANGITMYAVGVGKAIEEELQEIASEPTNKHLFYAEDFSTMDEISEKLKKGICEALEDSDGRQDSPAGELPKTVQQPTVQHRYLFEEDNLLRSTQKLSHSTKPSGSPLEEKHDQCKCENLIMFQNLANEEVRKLTQRLEEMTQRMEALENRLRYR
